B1: Fab 1A2 (recombinant Fab of human anti-gE antibody 1A2, elicited by ZVL vaccination) (Fab, V domains shown)
VH: EVQLVQSGAEMKKPGASVKVSCKTSGYVFNEYYIHWVRQAPGQGLEWLGRINPNSGDANYAPKFQGRVTLTRDTSIRTYFMELNRLRSDDTAVYYCARIMYFEYDSWSDYWGQGTLVTVSS
VL: DIQMTQSPSSLSASVGDRVTITCRASQSIRSNLNWYQQKPGKAPNVLIYATSSLQSGVPSRFSGSGSGTDFTLTIRSLQPEDFATYYCQQSYSLPWTFGQGTKVEIK
notes: source: HEK293 Expi cells, transient, purified (StrepTrap HP, SEC)
B2: Fab 1E3 (recombinant Fab of human anti-gE antibody 1E3, elicited by ZVL vaccination) (Fab, V domains shown)
VH: QVQLQESGPGLVKPSQTLSLTCTVSGGSISSNDYYWTWIRQSPGKGLEWIGFISYNGDTYYNPSLKRRGTISVDTSKIQFSLRLSSVTAADTAVYYCARVRTSSTTSYYFDYWGQGTLVTVSS
VL: DIQMTQSPSSLSASVGDRVTITCRASQGIRNYLNWYQQKPGKAPMLLIYGASSLQNGVPSRFSGSGSGTEFTLTISSLQPEDFATYYCQQSYRTLTFGPGTKVDIK
notes: also called 1E3 Fab; source: HEK293 Expi cells, transient, purified (StrepTrap HP, SEC)
B3: Fab 1E8 (recombinant Fab of human anti-gE antibody 1E8, elicited by ZVL vaccination) (Fab, V domains shown)
VH: QVQLQESGPGLVRPSQTLSLTCTVSGGSITSGSFYWSWVRQSAGKGLEWIGRIFKTGSTTYKPSLKSRVTMSVDTSKNQFSLKLSSVTATDTAVYFCARAPFYNDFSGYSYYFDYWGQGTLVTVSS
VL: QSVLTQPPSASGTPGQRVTISCSGSSSDIGPNTVHWYRQVPGTAPTLLIYSDNQRPSGVPARFSGSRSGTSASLAISGLQSEDEAIYYCAAWDDSLNPLYVFGTGTKVTVL
notes: as for B1
B4: Fab 5A2 (recombinant Fab of human anti-gE antibody 5A2, elicited by ZVL vaccination) (Fab, V domains shown)
VH: QVQLQESGPGLVKPSETLSLTCIVSGGSISRYYWSWIRQPPGRGLEWIGNIYYTGTTNYNPSLQSRVTISLDTSKNQFSLRLTSVTAADTAVYYCARIGGVSFGERPIDYWGQGTLVTVSS
VL: DIQMTQSPSSLSASVGDRVTITCRASQTISTYLNWYQQKPGKAPKLLIYAASTLQSGVPSRFSGSGSGTDFTLTITSLQPEDFAAYYCQQSYSIPLTFGGGTKVEIK
notes: also called 5A2 Fab; source: HEK293 Expi cells, transient, purified (StrepTrap HP, SEC)

Experiments:
[1] = target: T1, VZV glycoprotein E, full-length gE ectodomain (gE_FL) (Varicella-zoster virus; strain not …, UniProt P09259); experiment: BLI; Octet Red96; Fabs loaded onto FAB2G biosensors (0.5 to 1.0 nm), gE as analyte at 25 nM to 1.6 nM; 1 x PBS with 1% BSA; conditions: both partners purified
T1 construct: Varicella zoster virus glycoprotein E (gE), 'full-length gE ectodomain', includes the disordered N-terminal region (residues 1-115); The construct used in the HPLC-SEC binning is only called 'VZV gE'; also called FL gE; VZV gE; source: Expi293 cells, transfected, purified from culture supernatant (HisTrap, Superdex 200 SEC)
T1 sequence (P09259 whole entry, looked up, the tested form may be a part): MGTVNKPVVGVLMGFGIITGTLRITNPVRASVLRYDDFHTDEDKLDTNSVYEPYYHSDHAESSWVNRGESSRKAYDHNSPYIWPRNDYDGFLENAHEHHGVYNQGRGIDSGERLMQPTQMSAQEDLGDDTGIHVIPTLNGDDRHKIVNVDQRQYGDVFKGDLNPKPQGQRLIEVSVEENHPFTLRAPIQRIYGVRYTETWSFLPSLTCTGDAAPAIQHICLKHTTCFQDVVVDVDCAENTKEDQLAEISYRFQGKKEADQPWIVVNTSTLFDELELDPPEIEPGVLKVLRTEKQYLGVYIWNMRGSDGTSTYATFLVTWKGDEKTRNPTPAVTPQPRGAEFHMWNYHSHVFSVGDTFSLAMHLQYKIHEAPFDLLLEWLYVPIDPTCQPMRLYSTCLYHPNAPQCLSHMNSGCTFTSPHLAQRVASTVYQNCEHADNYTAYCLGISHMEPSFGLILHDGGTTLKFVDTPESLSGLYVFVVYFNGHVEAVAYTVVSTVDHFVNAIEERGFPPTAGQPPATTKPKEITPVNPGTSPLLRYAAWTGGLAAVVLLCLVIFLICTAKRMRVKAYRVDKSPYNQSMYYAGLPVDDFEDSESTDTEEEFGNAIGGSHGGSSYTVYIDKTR

[2] = target: T1, VZV glycoprotein E, full-length gE …; experiment: SEC; HPLC-SEC epitope binning: VZV gE mixed with primary Fab at mass ratio 1:3 for 10 min at room temperature, then with secondary Fab at the same ratio; Superdex 200 Increase 3.2/300; conditions: both partners purified

Row | Binder | binding result [1] | binding result [2]
1 | B1 | binds | –
2 | B2 | binds | –
3 | B3 | – | binds
4 | B4 | binds | –

Source: PMC11511291, “Structures of the Varicella Zoster Virus Glycoprotein E and Epitope Mapping of Vaccine-Elicited Antibodies” (Vaccines, 2024)
